# Test results as given in patent publication US20180118786A1 (ECOLE POLYTECHNIQUE FEDERALE DE LAUSANNE EPFL, published 2018).
# Starred links: 1 amine or outer side, 2 acyl side, 3 side chain; linkers in the order of their positions; H or OH if unused. Positions of bridges follow the written chain, without caps; N, C: chain ends. Non-standard residues stand in square brackets, D forms with d. No end group written: not given here. TATA = O=C(CC[*:1])N1CN(C(=O)CC[*:2])CN(C(=O)CC[*:3])C1; Phe(4-guanidino) = N=C(N)Nc1ccc(C[C@H](N)C(=O)O)cc1; hArg = N=C(N)NCCCC[C@H](N)C(=O)O; Agb = N=C(N)NCC[C@H](N)C(=O)O
# Biological target: T1, human β-FXIIa (HFXIIAB; Molecular Innovations) (human, UniProt P00748 354-362; P00748 373-615, limits assumed)
# T1 construct: domain: catalytic domain; Bought; also called human b-FXIIa; human FXIIa
# Assay: protease inhibition assay, fluorogenic substrate
# T1 sequence (P00748 373-615 limits assumed, one chain of several): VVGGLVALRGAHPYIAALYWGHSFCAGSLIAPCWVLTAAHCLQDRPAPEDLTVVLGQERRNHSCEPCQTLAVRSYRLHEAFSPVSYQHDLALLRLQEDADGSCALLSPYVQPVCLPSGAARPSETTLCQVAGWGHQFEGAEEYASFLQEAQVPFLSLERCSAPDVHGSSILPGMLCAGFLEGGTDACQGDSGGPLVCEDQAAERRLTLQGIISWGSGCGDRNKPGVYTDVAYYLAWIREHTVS
row,Ki [nM],Binder
1,27.4,"KCFRLPCRQLRCR-NH2 (linker 2-7-12 via TATA; N-terminus assumed; SMILES CC(C)C[C@@H]1NC(=O)[C@H](CCC(N)=O)NC(=O)[C@H](CCCNC(=N)N)NC(=O)[C@@H]2CSCCC(=O)N3CN(CN(C3)C(=O)CCSC[C@H](NC(=O)[C@@H](N)CCCCN)C(=O)N[C@@H](Cc3ccccc3)C(=O)N[C@@H](CCCNC(=N)N)C(=O)N[C@@H](CC(C)C)C(=O)N3CCC[C@H]3C(=O)N2)C(=O)CCSC[C@@H](C(=O)N[C@@H](CCCNC(=N)N)C(N)=O)NC(=O)[C@H](CCCNC(=N)N)NC1=O) [peptide 67 (FXII618, Arg1 to lysine)]"

# Biological target: T1, human β-FXIIa (HFXIIAB; Molecular …)
# Assay: protease inhibition assay
Binder,fold reduction of activity vs peptide 2 [fold],fold reduction of affinity vs peptide 2 [fold],fold reduction of affinity vs peptide 1 [fold],fold reduction of affinity vs FXII618 [fold]
"RCVRLPCRQLRCRW-NH2 (linker 2-7-12 via TATA; N-terminus assumed; SMILES CC(C)C[C@@H]1NC(=O)[C@H](CCC(N)=O)NC(=O)[C@H](CCCNC(=N)N)NC(=O)[C@@H]2CSCCC(=O)N3CN(CN(C3)C(=O)CCSC[C@H](NC(=O)[C@@H](N)CCCNC(=N)N)C(=O)N[C@@H](C(C)C)C(=O)N[C@@H](CCCNC(=N)N)C(=O)N[C@@H](CC(C)C)C(=O)N3CCC[C@H]3C(=O)N2)C(=O)CCSC[C@@H](C(=O)N[C@@H](CCCNC(=N)N)C(=O)N[C@@H](Cc2c[nH]c3ccccc23)C(N)=O)NC(=O)[C@H](CCCNC(=N)N)NC1=O, Number tied to residue by the order of the list) [peptide 7 (peptide 2, Phe3 to valine)]",> 10,,,
"RCIRLPCRQLRCRW-NH2 (linker 2-7-12 via TATA; N-terminus assumed; SMILES CC[C@H](C)[C@@H]1NC(=O)[C@@H](NC(=O)[C@@H](N)CCCNC(=N)N)CSCCC(=O)N2CN3CN(C2)C(=O)CCSC[C@H](NC(=O)[C@@H]2CCCN2C(=O)[C@H](CC(C)C)NC(=O)[C@H](CCCNC(=N)N)NC1=O)C(=O)N[C@@H](CCCNC(=N)N)C(=O)N[C@@H](CCC(N)=O)C(=O)N[C@@H](CC(C)C)C(=O)N[C@@H](CCCNC(=N)N)C(=O)N[C@H](C(=O)N[C@@H](CCCNC(=N)N)C(=O)N[C@@H](Cc1c[nH]c2ccccc12)C(N)=O)CSCCC3=O, Number tied to residue by the order of the list) [peptide 8 (peptide 2, Phe3 to isoleucine)]",> 10,,,
"RCFRIPCRQLRCRW-NH2 (linker 2-7-12 via TATA; N-terminus assumed; SMILES CC[C@H](C)[C@@H]1NC(=O)[C@H](CCCNC(=N)N)NC(=O)[C@H](Cc2ccccc2)NC(=O)[C@@H](NC(=O)[C@@H](N)CCCNC(=N)N)CSCCC(=O)N2CN3CN(C2)C(=O)CCSC[C@H](NC(=O)[C@@H]2CCCN2C1=O)C(=O)N[C@@H](CCCNC(=N)N)C(=O)N[C@@H](CCC(N)=O)C(=O)N[C@@H](CC(C)C)C(=O)N[C@@H](CCCNC(=N)N)C(=O)N[C@H](C(=O)N[C@@H](CCCNC(=N)N)C(=O)N[C@@H](Cc1c[nH]c2ccccc12)C(N)=O)CSCCC3=O) [peptide 12 (peptide 2, Leu5 to isoleucine)]",,> 50,,
"RCFRLPCRDLRCRW-NH2 (linker 2-7-12 via TATA; N-terminus assumed; SMILES CC(C)C[C@@H]1NC(=O)[C@H](CC(=O)O)NC(=O)[C@H](CCCNC(=N)N)NC(=O)[C@@H]2CSCCC(=O)N3CN(CN(C3)C(=O)CCSC[C@H](NC(=O)[C@@H](N)CCCNC(=N)N)C(=O)N[C@@H](Cc3ccccc3)C(=O)N[C@@H](CCCNC(=N)N)C(=O)N[C@@H](CC(C)C)C(=O)N3CCC[C@H]3C(=O)N2)C(=O)CCSC[C@@H](C(=O)N[C@@H](CCCNC(=N)N)C(=O)N[C@@H](Cc2c[nH]c3ccccc23)C(N)=O)NC(=O)[C@H](CCCNC(=N)N)NC1=O) [peptide 21 (peptide 2, Gln9 to aspartate)]",54,,,
"RCFRVPCRQLRCRW-NH2 (linker 2-7-12 via TATA; N-terminus assumed; SMILES CC(C)C[C@@H]1NC(=O)[C@H](CCC(N)=O)NC(=O)[C@H](CCCNC(=N)N)NC(=O)[C@@H]2CSCCC(=O)N3CN(CN(C3)C(=O)CCSC[C@H](NC(=O)[C@@H](N)CCCNC(=N)N)C(=O)N[C@@H](Cc3ccccc3)C(=O)N[C@@H](CCCNC(=N)N)C(=O)N[C@@H](C(C)C)C(=O)N3CCC[C@H]3C(=O)N2)C(=O)CCSC[C@@H](C(=O)N[C@@H](CCCNC(=N)N)C(=O)N[C@@H](Cc2c[nH]c3ccccc23)C(N)=O)NC(=O)[C@H](CCCNC(=N)N)NC1=O) [peptide 11 (peptide 2, Leu5 to valine)]",,> 50,,
"RCFRLPCRQIRCRW-NH2 (linker 2-7-12 via TATA; N-terminus assumed; SMILES CC[C@H](C)[C@@H]1NC(=O)[C@H](CCC(N)=O)NC(=O)[C@H](CCCNC(=N)N)NC(=O)[C@@H]2CSCCC(=O)N3CN(CN(C3)C(=O)CCSC[C@H](NC(=O)[C@@H](N)CCCNC(=N)N)C(=O)N[C@@H](Cc3ccccc3)C(=O)N[C@@H](CCCNC(=N)N)C(=O)N[C@@H](CC(C)C)C(=O)N3CCC[C@H]3C(=O)N2)C(=O)CCSC[C@@H](C(=O)N[C@@H](CCCNC(=N)N)C(=O)N[C@@H](Cc2c[nH]c3ccccc23)C(N)=O)NC(=O)[C@H](CCCNC(=N)N)NC1=O) [peptide 26 (peptide 2, Leu10 to isoleucine)]",8,,,
"RCF[Agb]LPCRQLRCRW-NH2 (linker 2-7-12 via TATA, Number tied to residue by the order of the list) [peptide 40 (peptide 2, Arg4 to norarginine)]",,≥ 5,,
"H-RCF[hArg]LPCRQLRCRW-NH2 (linker 2-7-12 via TATA, Number tied to residue by the order of the list) [peptide 39 (peptide 2, Arg4 to homoarginine)]",,≥ 5,,
"H-RCF[homolysine]LPCRQLRCRW-NH2 (linker 2-7-12 via TATA) [peptide 38 (peptide 2, Arg4 to homolysine)]",,≥ 5,,

# Other lines, results leading:
fold reduction of activity vs peptide 2 [fold],fold reduction of affinity vs peptide 2 [fold],fold reduction of affinity vs peptide 1 [fold],fold reduction of affinity vs FXII618 [fold],Binder
,≥ 5,,,"RCF[Phe(4-guanidino)]LPCRQLRCRW-NH2 (linker 2-7-12 via TATA; N-terminus assumed; SMILES CC(C)C[C@@H]1NC(=O)[C@H](CCC(N)=O)NC(=O)[C@H](CCCNC(=N)N)NC(=O)[C@@H]2CSCCC(=O)N3CN(CN(C3)C(=O)CCSC[C@H](NC(=O)[C@@H](N)CCCNC(=N)N)C(=O)N[C@@H](Cc3ccccc3)C(=O)N[C@@H](Cc3ccc(NC(=N)N)cc3)C(=O)N[C@@H](CC(C)C)C(=O)N3CCC[C@H]3C(=O)N2)C(=O)CCSC[C@@H](C(=O)N[C@@H](CCCNC(=N)N)C(=O)N[C@@H](Cc2c[nH]c3ccccc23)C(N)=O)NC(=O)[C@H](CCCNC(=N)N)NC1=O, Number tied to residue by the order of the list) [peptide 41 (peptide 2, Arg4 to 4-guanidinophenylalanine)]"
,,> 5,,"ICFRLPCRQLRCR-NH2 (linker 2-7-12 via TATA; N-terminus assumed; SMILES CC[C@H](C)[C@H](N)C(=O)N[C@H]1CSCCC(=O)N2CN3CN(C2)C(=O)CCSC[C@H](NC(=O)[C@@H]2CCCN2C(=O)[C@H](CC(C)C)NC(=O)[C@H](CCCNC(=N)N)NC(=O)[C@H](Cc2ccccc2)NC1=O)C(=O)N[C@@H](CCCNC(=N)N)C(=O)N[C@@H](CCC(N)=O)C(=O)N[C@@H](CC(C)C)C(=O)N[C@@H](CCCNC(=N)N)C(=O)N[C@H](C(=O)N[C@@H](CCCNC(=N)N)C(N)=O)CSCCC3=O, Number tied to residue by the order of the list) [peptide 64 (FXII618, Arg1 to isoleucine)]"
,,,~200,"RCFRLPCRGLRCR-NH2 (linker 2-7-12 via TATA; N-terminus assumed; SMILES CC(C)C[C@@H]1NC(=O)CNC(=O)[C@H](CCCNC(=N)N)NC(=O)[C@@H]2CSCCC(=O)N3CN(CN(C3)C(=O)CCSC[C@H](NC(=O)[C@@H](N)CCCNC(=N)N)C(=O)N[C@@H](Cc3ccccc3)C(=O)N[C@@H](CCCNC(=N)N)C(=O)N[C@@H](CC(C)C)C(=O)N3CCC[C@H]3C(=O)N2)C(=O)CCSC[C@@H](C(=O)N[C@@H](CCCNC(=N)N)C(N)=O)NC(=O)[C@H](CCCNC(=N)N)NC1=O) [peptide 85 (FXII618, Gln9 to glycine)]"
,,,~200,"RCFRLPCRQGRCR-NH2 (linker 2-7-12 via TATA; N-terminus assumed; SMILES CC(C)C[C@@H]1NC(=O)[C@H](CCCNC(=N)N)NC(=O)[C@H](Cc2ccccc2)NC(=O)[C@@H](NC(=O)[C@@H](N)CCCNC(=N)N)CSCCC(=O)N2CN3CN(C2)C(=O)CCSC[C@H](NC(=O)[C@@H]2CCCN2C1=O)C(=O)N[C@@H](CCCNC(=N)N)C(=O)N[C@@H](CCC(N)=O)C(=O)NCC(=O)N[C@@H](CCCNC(=N)N)C(=O)N[C@H](C(=O)N[C@@H](CCCNC(=N)N)C(N)=O)CSCCC3=O) [peptide 87 (FXII618, Leu10 to glycine)]"
,,> 5,,"VCFRLPCRQLRCR-NH2 (linker 2-7-12 via TATA; N-terminus assumed; SMILES CC(C)C[C@@H]1NC(=O)[C@H](CCC(N)=O)NC(=O)[C@H](CCCNC(=N)N)NC(=O)[C@@H]2CSCCC(=O)N3CN(CN(C3)C(=O)CCSC[C@H](NC(=O)[C@@H](N)C(C)C)C(=O)N[C@@H](Cc3ccccc3)C(=O)N[C@@H](CCCNC(=N)N)C(=O)N[C@@H](CC(C)C)C(=O)N3CCC[C@H]3C(=O)N2)C(=O)CCSC[C@@H](C(=O)N[C@@H](CCCNC(=N)N)C(N)=O)NC(=O)[C@H](CCCNC(=N)N)NC1=O, Number tied to residue by the order of the list) [peptide 65 (FXII618, Arg1 to valine)]"
,,> 5,,"ACFRLPCRQLRCR-NH2 (linker 2-7-12 via TATA; N-terminus assumed; SMILES CC(C)C[C@@H]1NC(=O)[C@H](CCC(N)=O)NC(=O)[C@H](CCCNC(=N)N)NC(=O)[C@@H]2CSCCC(=O)N3CN(CN(C3)C(=O)CCSC[C@@H](C(=O)N[C@@H](CCCNC(=N)N)C(N)=O)NC(=O)[C@H](CCCNC(=N)N)NC1=O)C(=O)CCSC[C@H](NC(=O)[C@H](C)N)C(=O)N[C@@H](Cc1ccccc1)C(=O)N[C@@H](CCCNC(=N)N)C(=O)N[C@@H](CC(C)C)C(=O)N1CCC[C@H]1C(=O)N2, Number tied to residue by the order of the list) [peptide 66 (FXII618, Arg1 to alanine)]"
